Measurements as given in the supplement of paper PMC7125110.
± gives the standard error. This sample holds only a part of the variants without activity.

B1: glmS ribozyme (parent)
chain: AUAAAAGCGCCAGAACUACAGAAAUGUAGUUGACGAGGAGGAGGUUUAUCGAAUUUUCGGCGGAUGCCUCCAAA

Experiments:
Settings in all cases: with glucosamine-6-phosphate
[1] = variants of: B1; test: self-cleavage kobs at 160 uM GlcN6P; higher = faster cleavage; RNA array
Procedure, shortened: (§1)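 Tracking of barcoded ribozyme variants used a hybridised Cy3 probe at 37 °C, after in situ transcription by E. coli RNA polymerase on sequenced MiSeq chips. The flowed solution held 40 μM to 10 mM glucosamine-6-phosphate in HEPES/KCl/Mg(OAc)2 buffer, and imaging ran over ~14 h. kobs was taken from exponential decay fits of normalised per-tile medians, and kcat and KM from weighted Michaelis–Menten fits.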

[2] = variants of: B1; test: self-cleavage kobs at 640 uM GlcN6P; higher = faster cleavage; RNA array
Procedure, shortened: as §1

[3] = variants of: B1; test: self-cleavage kobs at 2500 uM GlcN6P; higher = faster cleavage; RNA array
Procedure, shortened: as §1

[4] = variants of: B1; test: self-cleavage kobs at 10000 uM GlcN6P; higher = faster cleavage; RNA array
Procedure, shortened: as §1

Row | Variant | self-cleavage kobs at 160 uM GlcN6P [1] | self-cleavage kobs at 640 uM GlcN6P [2] | self-cleavage kobs at 2500 uM GlcN6P [3] | self-cleavage kobs at 10000 uM GlcN6P [4]
1 | A15G U55G C70A | 7.19e-05 ± 1.2e-05 s⁻¹ | 0.000151 ± 2.6e-05 s⁻¹ | 0.000186 ± 3.7e-05 s⁻¹ | –
2 | U47A G63U | < 1e-05 s⁻¹ | < 1e-05 s⁻¹ | < 1e-05 s⁻¹ | < 1e-05 s⁻¹
3 | C16G G62C A64U | < 1e-05 s⁻¹ | – | – | –
4 | C16U G43U G59U | < 1e-05 s⁻¹ | < 1e-05 s⁻¹ | – | –
5 | G29A U30G G35A G38U U46A C71G | < 1e-05 s⁻¹ | – | – | –
6 | A15U G38C C71A | < 1e-05 s⁻¹ | – | < 1e-05 s⁻¹ | –
7 | U45C A48U U69C | < 1e-05 s⁻¹ | < 1e-05 s⁻¹ | – | –
8 | A15C U30G U31G | 0.00201 ± 0.00083 s⁻¹ | 0.0146 ± 0.0069 s⁻¹ | 0.00946 ± 0.0035 s⁻¹ | –
9 | C34G G63A | < 1e-05 s⁻¹ | < 1e-05 s⁻¹ | < 1e-05 s⁻¹ | < 1e-05 s⁻¹
10 | U30G G51U | < 1e-05 s⁻¹ | – | – | < 1e-05 s⁻¹
11 | U56A G63C | < 1e-05 s⁻¹ | – | < 1e-05 s⁻¹ | –
12 | A39G A42U A64C | < 1e-05 s⁻¹ | < 1e-05 s⁻¹ | < 1e-05 s⁻¹ | –
13 | G43U U47G U65C | < 1e-05 s⁻¹ | – | < 1e-05 s⁻¹ | –
14 | G29U U65A C68G | 5.02e-05 ± 1.1e-05 s⁻¹ | 6.79e-05 ± 1.4e-05 s⁻¹ | 3.55e-05 ± 1.3e-05 s⁻¹ | –
15 | G37C C71G | < 1e-05 s⁻¹ | – | – | < 1e-05 s⁻¹
16 | U30A A48U G62A | < 1e-05 s⁻¹ | < 1e-05 s⁻¹ | < 1e-05 s⁻¹ | –
17 | C67G C68A | 7.05e-05 ± 2.1e-05 s⁻¹ | 3.85e-05 ± 1.1e-05 s⁻¹ | 2.05e-05 ± 7.5e-06 s⁻¹ | –
18 | C34G C58U A64C C67G | 4.06e-05 ± 2e-05 s⁻¹ | 7.23e-05 ± 2.6e-05 s⁻¹ | – | –
19 | A42C U45G | < 1e-05 s⁻¹ | < 1e-05 s⁻¹ | – | –
20 | G29U G37C A39U | < 1e-05 s⁻¹ | < 1e-05 s⁻¹ | – | –
21 | C61U G62U | < 1e-05 s⁻¹ | < 1e-05 s⁻¹ | – | < 1e-05 s⁻¹
22 | A39C G51U C71A | < 1e-05 s⁻¹ | – | – | –
23 | C34U U47G | < 1e-05 s⁻¹ | < 1e-05 s⁻¹ | – | –
24 | A36C U47G U69G | 0.000151 ± 3.4e-05 s⁻¹ | 8.37e-05 ± 1.5e-05 s⁻¹ | 0.000213 ± 6e-05 s⁻¹ | –
25 | G51C G60A U69A | < 1e-05 s⁻¹ | – | – | –
26 | G37A G62C | < 1e-05 s⁻¹ | < 1e-05 s⁻¹ | < 1e-05 s⁻¹ | < 1e-05 s⁻¹
27 | A42G A48G U54A | < 1e-05 s⁻¹ | – | – | –
